{
  "source": "paper PMC8514580",
  "about": "“Insight into the interaction between the RNA helicase CGH-1 and EDC-3 and its implications” (Scientific Reports, 2021)",
  "assay_in_all_cases": "ITC; ligand (peptide or CAR-1 fragment, 0.5 mM) injected into CGH-1_(248-420) or mutant (0.05 mM) in the cell; 20 °C; Buffer B (20 mM Tris-HCl pH 7.5, 150 mM NaCl); one-binding-site model",
  "conditions_in_all_cases": "both partners purified",
  "key": {"CGH-1_(248–420) F261A": {"target": "T1, CGH-1_(248–420) F261A (C. elegans, UniProt Q95YF3 248-420, F261A)", "T1 construct": "Mutant of m1 made with the MutanBEST kit; source: E. coli Gold (DE3), purified (Ni-chelating resin, SEC Superdex 75)", "T1 sequence (looked up)": "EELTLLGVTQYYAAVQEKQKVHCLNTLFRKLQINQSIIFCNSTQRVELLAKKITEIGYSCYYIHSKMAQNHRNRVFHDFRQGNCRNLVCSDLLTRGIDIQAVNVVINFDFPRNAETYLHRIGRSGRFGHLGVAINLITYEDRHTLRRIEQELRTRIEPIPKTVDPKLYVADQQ"}, "CGH-1_(248–420) K277E": {"target": "T2, CGH-1_(248–420) K277E (C. elegans, UniProt Q95YF3 248-420, K277E)", "T2 construct": "Mutant of m1 made with the MutanBEST kit; source: E. coli Gold (DE3), purified (Ni-chelating resin, SEC Superdex 75)", "T2 sequence (looked up)": "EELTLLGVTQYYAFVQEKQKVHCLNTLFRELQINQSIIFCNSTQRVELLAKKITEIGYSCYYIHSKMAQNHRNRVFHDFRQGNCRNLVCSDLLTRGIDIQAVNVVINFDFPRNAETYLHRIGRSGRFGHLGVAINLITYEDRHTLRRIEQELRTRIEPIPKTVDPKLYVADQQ"}, "CGH-1_(248–420) E396A": {"target": "T3, CGH-1_(248–420) E396A (C. elegans, UniProt Q95YF3 248-420, E396A)", "T3 construct": "Mutant of m1 made with the MutanBEST kit; source: E. coli Gold (DE3), purified (Ni-chelating resin, SEC Superdex 75)", "T3 sequence (looked up)": "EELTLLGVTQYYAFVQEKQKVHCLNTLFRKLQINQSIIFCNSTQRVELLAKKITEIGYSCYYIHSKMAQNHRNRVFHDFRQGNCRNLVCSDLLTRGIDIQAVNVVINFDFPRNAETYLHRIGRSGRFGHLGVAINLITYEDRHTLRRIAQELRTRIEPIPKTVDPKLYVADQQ"}, "[1]": {"target": "T4, CGH-1_(248–420) 4A mutant (His269, Cys270, Thr273 and Leu274 to Ala) (C. elegans, UniProt Q95YF3 248-420, His269 to Ala | Cys270 to Ala | Thr273 to Ala | Leu274 to Ala)", "T4 construct": "Mutant of m1 made with the MutanBEST kit; also called four-alanine mutant; source: E. coli Gold (DE3), purified (Ni-chelating resin, SEC Superdex 75)", "T4 sequence (looked up)": "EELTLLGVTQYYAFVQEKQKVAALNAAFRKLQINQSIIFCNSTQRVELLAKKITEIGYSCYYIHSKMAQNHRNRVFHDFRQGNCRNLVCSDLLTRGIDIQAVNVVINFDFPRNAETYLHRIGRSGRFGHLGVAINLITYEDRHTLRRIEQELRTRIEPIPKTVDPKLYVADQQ"}},
  "data": [
    {"binder": "SDEDHNIFDDEFDAANDETFGGGLDNIGENAELENYAT (PATR-1 (Pat1 ortholog), C. elegans, residues 30-67; Printed with free NH2 and COOH ends; also called PATR1_30-67^WT; CePATR-1 peptide; source: synthetic peptide (GL Biochem, Shanghai))", "note": "[PATR-1 peptide (CePATR-1_(30–67))]", "values": [
      {"measurement": "Kd", "setting": "CGH-1_(248–420) F261A", "value": "6.62 ± 1.05", "unit": "µM"},
      {"measurement": "dH", "setting": "CGH-1_(248–420) F261A", "value": "-13 ± 0.7", "unit": "kcal/mol"},
      {"measurement": "stoichiometry N", "setting": "CGH-1_(248–420) F261A", "value": 0.76},
      {"measurement": "Kd", "setting": "CGH-1_(248–420) K277E", "value": "8.29 ± 0.99", "unit": "µM"},
      {"measurement": "dH", "setting": "CGH-1_(248–420) K277E", "value": "-19.6 ± 0.95", "unit": "kcal/mol"},
      {"measurement": "stoichiometry N", "setting": "CGH-1_(248–420) K277E", "value": 1.07},
      {"measurement": "Kd", "setting": "CGH-1_(248–420) E396A", "value": "2.96 ± 0.34", "unit": "µM"},
      {"measurement": "dH", "setting": "CGH-1_(248–420) E396A", "value": "-16.3 ± 0.47", "unit": "kcal/mol"},
      {"measurement": "stoichiometry N", "setting": "CGH-1_(248–420) E396A", "value": 0.93},
      {"measurement": "Kd", "setting": "[1]", "value": "2.06 ± 0.27", "unit": "µM"},
      {"measurement": "dH", "setting": "[1]", "value": "-15.4 ± 0.44", "unit": "kcal/mol"},
      {"measurement": "stoichiometry N", "setting": "[1]", "value": 0.79}
    ]}
  ]
}
